# B1: L1L3: humanized (<5% murine residues) monoclonal PCSK9 antagonist antibody that binds to secreted PCSK9; VH SEQ ID NO: 11, VL SEQ ID NO: 12 (antibody, V domains shown)
# VH: QVQLVQSGAEVKKPGASVKVSCKASGYTFTSYYMHWVRQAPGQGLEWMGEISPFGGRTNYNEKFKSRVTMTRDTSTSTVYMELSSLRSEDTAVYYCARERPLYASDLWGQGTTVTVSS
# VL: DIQMTQSPSSLSASVGDRVTITCRASQGISSALAWYQQKPGKAPKLLIYSASYRYTGVPSRFSGSGSGTDFTFTISSLQPEDIATYYCQQRYSLWRTFGQGTKLEIK
# modifications: heavy chain variable region; light chain variable region
# Target: T1, PCSK9 (Homo sapiens, UniProt Q8NBP7)
# T1 construct: PCSK9 antagonist antibody that antagonizes circulating PCSK9; endogenous in cells; host or cells: human subjects in clinical trials (in vivo, circulating PCSK9)
# Test: Example 2 clinical study, single escalating IV doses: fasting lipids
# Type: in vivo
# Procedure: The study entailed a randomized, placebo-controlled, ascending, single dose study of L1L3. The subjects, investigator, and site personnel (except site personnel responsible for drug preparation) were blinded to treatment assignments, as was the CRO designee; while the Sponsor clinical research team was unblinded. The study was conducted in 6 planned cohorts of 8 subjects per cohort in an effort to seek a maximum tolerated dose or MTD (total of approximately 48 subjects). […] Doses were administered following an overnight fast as an intravenous infusion over 60 minutes. […] Infusions will be administered as a single infusion over 60 minutes.
# Change in serum lipids (total cholesterol, LDL, HDL, Triglycerides, Non-HDL-C and Apoprotein B) were assessed.
# Collection of fasting lipid profile was performed after at least a 10-hour fast (total cholesterol, LDL, HDL, Non-HDL Cholesterol, Apo B and triglycerides).
# T1 sequence (Q8NBP7 153-692): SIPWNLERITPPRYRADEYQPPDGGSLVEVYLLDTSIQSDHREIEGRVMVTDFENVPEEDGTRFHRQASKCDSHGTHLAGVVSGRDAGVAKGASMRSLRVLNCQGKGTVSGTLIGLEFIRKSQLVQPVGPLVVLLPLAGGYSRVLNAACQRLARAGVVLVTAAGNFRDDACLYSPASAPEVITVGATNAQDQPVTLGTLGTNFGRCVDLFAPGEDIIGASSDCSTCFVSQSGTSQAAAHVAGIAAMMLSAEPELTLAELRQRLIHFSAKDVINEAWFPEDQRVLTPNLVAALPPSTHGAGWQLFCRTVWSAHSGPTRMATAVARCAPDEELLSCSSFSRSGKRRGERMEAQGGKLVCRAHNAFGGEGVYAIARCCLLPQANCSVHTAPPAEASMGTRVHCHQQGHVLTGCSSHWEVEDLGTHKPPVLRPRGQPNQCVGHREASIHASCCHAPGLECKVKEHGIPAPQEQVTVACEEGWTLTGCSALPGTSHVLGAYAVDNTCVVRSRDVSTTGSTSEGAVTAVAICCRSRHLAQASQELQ
# T1 sequence (Q8NBP7 31-152 partner limits assumed): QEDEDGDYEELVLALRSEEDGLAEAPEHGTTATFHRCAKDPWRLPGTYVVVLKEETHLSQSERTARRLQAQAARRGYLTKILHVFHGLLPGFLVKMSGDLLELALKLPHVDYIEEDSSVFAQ
molecule,measurement,setting,value
B1,"Fasting apolipoprotein B (apo B), % below baseline","0.3 mg/kg, by day 7",about 25%
same,"Fasting apolipoprotein B (apo B), % below baseline","1 mg/kg, by day 14",about 40%
same,"Fasting apolipoprotein B (apo B), % below baseline","3 mg/kg, by day 14",about 40%
same,"Fasting apolipoprotein B (apo B), % below baseline","3 mg/kg, by day 28",about 50%
same,Fasting LDL-C levels,"6 mg/kg or 12 mg/kg, by day 14 post-dosing",about 55 mg/dL
same,"Fasting apolipoprotein B (apo B), % below baseline","6 mg/kg, by day 14",about 40%
same,"Fasting apolipoprotein B (apo B), % below baseline","6 mg/kg, by day 21",about 50%
same,"Fasting apolipoprotein B (apo B), % below baseline","6 mg/kg, generally, remainder of the study",> 30%
same,LDL-C percentage change from baseline (lowering),"18 mg/kg, FIG. 2",up to 83%
same,Fasting LDL-C levels,"18 mg/kg, by day 14 post-dosing",about 20 mg/dL
same,Fasting LDL-C levels,"1, 3, 6, 12, or 18 mg/kg, by day 14 post-dosing",≤ 70 mg/dL
same,"Fasting apolipoprotein B (apo B), % below baseline","12 or 18 mg/kg, by day 14, baseline about 119 mg/dL",about 50%
same,"Fasting apolipoprotein B (apo B), % below baseline","12 or 18 mg/kg, remainder of the study after day 14",≥ 50%
same,Earliest day LDL-C lowering effects were seen,all dosage groups,3 days
same,Day of maximum percentage LDL-C lowering,"in general, all dosage groups",Day 15 or Day 22
same,Duration of maximum LDL-C lowering effect,single 0.3 mg/kg,7 days
same,"Fasting total cholesterol (TC), % reduced","single 0.3 mg/kg, by about day 9",about 25%
same,Fasting LDL-C levels,"single 0.3 mg/kg, day 7 post-dosing",about 85 mg/dL
same,Fasting LDL-C levels,"single 0.3 mg/kg, until about 10 days post-dosing",below 100 mg/dL
same,Duration of maximum LDL-C lowering effect,single 1.0 mg/kg,14 days
same,"Fasting total cholesterol (TC), % below baseline","single 1 mg/kg, by about day 15",about 36%
same,Fasting LDL-C levels,"single 1 mg/kg, day 14 post-dosing",about 65 mg/dL
same,Fasting LDL-C levels,"single 1 mg/kg, until about 21 days post-dosing",below 100 mg/dL
same,Duration of maximum LDL-C lowering effect,single 3.0 mg/kg,up to 4 weeks
same,"Fasting total cholesterol (TC), % below baseline","single 3 mg/kg, by about day 9",about 30%
same,"Fasting total cholesterol (TC), % below baseline","single 3 mg/kg, by about day 22",about 40%
same,Fasting LDL-C levels,"single 3 mg/kg, day 14 post-dosing",about 70 mg/dL
same,Fasting LDL-C levels,"single 3 mg/kg, day 21 post-dosing",about 60 mg/dL
same,"LDL-C levels, % below baseline","single 3 mg/kg, maintained up to 29 days post administration",> 60%
same,"LDL-C levels, % below baseline","single 3 mg/kg, maintained up to 50 days post administration",> 20%
same,Fasting LDL-C levels,"single 3 mg/kg, until about 36 days post-dosing",below 100 mg/dL
same,"LDL-C levels, % below baseline","single 6 mg/kg or 12 mg/kg, maintained up to 43 days post administration",> 60%
same,Duration of maximum LDL-C lowering effect,"single 6 mg/kg, 12 mg/kg, and 18 mg/kg",more than 6 weeks
same,"Fasting total cholesterol (TC), % below baseline","single 6 mg/kg, by about day 9 until about day 52 post-dosing",≥ 30%
same,"Fasting total cholesterol (TC), % below baseline, in a number of subjects","single 6 mg/kg, by day 30 post-dosing",> 50%
same,Fasting LDL-C levels,"single 6 mg/kg, for about 42 days post-dosing",below 50 mg/dL
same,Fasting LDL-C levels,"single 6 mg/kg, until at least about 57 days post-dosing",below 100 mg/dL
same,Fasting LDL-C levels,"single 12 mg/kg, until at least about 57 days post-dosing (end of study)",≤ 60 mg/dL
same,"LDL-C levels, % below baseline","single 18 mg/kg, maintained at least up to 57 days post administration",> 65%
same,Fasting LDL-C levels,"single 18 mg/kg, until at least about 57 days post-dosing",below 50 mg/dL
same,"Fasting total cholesterol (TC), % below baseline","single 12 or 18 mg/kg, by about day 9, lasting at least to day 57, baseline about 230 mg/dL",≥ 30%
same,"Fasting total cholesterol (TC), % below baseline, in a number of subjects","single 12 or 18 mg/kg, by day 15 post-dosing",> 50%
same,mean percentage change from baseline of fasting LDL-C,"single IV 0.3 mg/kg, visit day 1",0.000%
same,mean percentage change from baseline of fasting LDL-C,"single IV 0.3 mg/kg, visit day 2",−15.8%
same,mean percentage change from baseline of fasting LDL-C,"single IV 0.3 mg/kg, visit day 3",−14.13%
same,mean percentage change from baseline of fasting LDL-C,"single IV 0.3 mg/kg, visit day 4",−30.14%
same,mean percentage change from baseline of fasting LDL-C,"single IV 0.3 mg/kg, visit day 8",−42.86%
same,mean percentage change from baseline of fasting LDL-C,"single IV 0.3 mg/kg, visit day 15",−23.68%
same,mean percentage change from baseline of fasting LDL-C,"single IV 0.3 mg/kg, visit day 22",−11.36%
same,mean percentage change from baseline of fasting LDL-C,"single IV 0.3 mg/kg, visit day 29",−9.12%
same,mean percentage change from baseline of fasting LDL-C,"single IV 1 mg/kg, visit day 1",0.000%
same,mean percentage change from baseline of fasting LDL-C,"single IV 1 mg/kg, visit day 2",−0.33%
same,mean percentage change from baseline of fasting LDL-C,"single IV 1 mg/kg, visit day 3",−9.79%
same,mean percentage change from baseline of fasting LDL-C,"single IV 1 mg/kg, visit day 4",−19.14%
same,mean percentage change from baseline of fasting LDL-C,"single IV 1 mg/kg, visit day 8",−33.33%
same,mean percentage change from baseline of fasting LDL-C,"single IV 1 mg/kg, visit day 15",−50.50%
same,mean percentage change from baseline of fasting LDL-C,"single IV 1 mg/kg, visit day 22",−22.40%
same,mean percentage change from baseline of fasting LDL-C,"single IV 1 mg/kg, visit day 29",−3.36%
same,mean percentage change from baseline of fasting LDL-C,"single IV 3 mg/kg, visit day 1",0.000%
same,mean percentage change from baseline of fasting LDL-C,"single IV 3 mg/kg, visit day 2",−1.97%
same,mean percentage change from baseline of fasting LDL-C,"single IV 3 mg/kg, visit day 3",−13.20%
same,mean percentage change from baseline of fasting LDL-C,"single IV 3 mg/kg, visit day 4",−19.10%
same,mean percentage change from baseline of fasting LDL-C,"single IV 3 mg/kg, visit day 8",−39.78%
same,mean percentage change from baseline of fasting LDL-C,"single IV 3 mg/kg, visit day 15",−57.93%
same,mean percentage change from baseline of fasting LDL-C,"single IV 3 mg/kg, visit day 22",−65.09%
same,mean percentage change from baseline of fasting LDL-C,"single IV 3 mg/kg, visit day 29",−64.77%
